Measurements: a protein production outcome set (Wang et al. 2014)

Experiment: label from the status in PepcDB records
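Also: failed if final PepcDB status was selected cloned or expressed and not failed if soluble or beyond.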

For “MFLAGAFIAVGSLYAQSSDAEWQAGVAKLKETIQTNPAQANEEAEQLIKGKNKKNVELLVAIGEVYLKAGKLPEAQEYAALAKKVNGKSALASVLEGDIAFEQKNAGLASQKYEEAIYFDPSCTEAYLRYADIYKSANAALAIEKLEQLKAQEPSNTAVDKKLAEIYYLKNDFSKAAEAYSRFAMGPTATEEDLVKYAFALFLNHDFEKSLEVANMGLKKNARHAAFNRLAMYNYTDLKRFDEAIKAADAFFTESDKADYSYLDYMYYGHLLEALKKYDEAVGQYEKAIQLDPTKTDLYKNISSAYEQKNDYKKAISAYQKYYTSLDKEHQTPDLQFQFGRLYYGAGTQTDSLTINAEERKQALMAADSVFHSIAEAAPDSYLGNFWRARANSALDPETTLGLAKPFYEEVATLLESKNDPHYNSALIECYSYLGYYYLLAIENPALKAEAMANKEKSKEYWSKILAIDSTNATAKRALDGIK”, the protein production was “failed”.
For “MESTKSNDIPILRNVSDSFSDHYGKYLQRCGIFVPKDGDSSGPDAYVVFHNGQTRYVVAFSFTFYHKTEFSKRDIEKEAEQFFQEVISVLNDGSPSSVQLCFQFVVVCTRYDRSVVFSSEEQNIVEDASYLVTEHSAGSTLNESRRSCLQLVVVSQRNLERFLGRENFDILRKIGKASREEFRKDFSVWCKTVFESMSDEYVSPLEAKPFNVTLRVARNIRPRTNEENRMQMEGFQTAMQVEEGNTRGEQRVAASSSLSSSFDWNTFLREYCGLSEEDVAYCLPKVEDIDMDELPAVTKEILRDLGIDKPALRLKIRSSIRSYLANER”, the protein production was “failed”.
For “MHPPIVMSTLPPSVAPPIGTAPQRHSLVSLRRLSWLRWALLAGQALLLVSCESLAGIALPYKPLLFLFAVQTVFNVFTVARLHWHTRHGTAPSDAELMVQMMVDLTALSAILFYTGGATNPFVSFYLPGLAIASAILPWRLVVTLAAYALACYSMLLLEYIPLDLHNPDNAVNYHLAGMWLNFVASAVMIAFFVARLSNALRQRDAQLNEARELLLREARVEALNDQAAAVAHEIGTPLATLAVIAGELRADAENTNRSDTPVADYQADLRTMEQQLELCRSILARLRADHETLAPQRIDAWLAPFVERWQLRHPQASLQAGAAPDAAAQAVDTARISQILTIALDNAARSQQAAGHDHRQGPPLRLDIAREADALVYRVTDHGHGLPPGLRARLGESPVASAHGGQGIGLYLAQSAARQLGGQISWHDNPAGGTVLELRLPLTAASERAIAAQPDFQP”, the protein production was “failed”.
For “MMRKHFLSRSSLRAIVLCVSLGTLSAQAVSVPNAIAQSSLPASPLDSFYSSIPSGENTVAGTVLSEQVIPTGLLDATIKVKRIAYSSTHPSGRMVPTIATILTPTAPWTGSGPRPAALLAPGTQGAGDQCAPSKLITVGAEYELFPAIMLLRRGWTVAITDYQGLGTIGAHTYMNRKAQGAALLDLGRAVVNVKYPEVRKDAPLILWGYSQGGGASAAAAEMHASYAPDVNIRGGFAGGVPAELLATARSLEGSPLLGALGYAISGMYETHPELRLEVDDLLNDRGKQWIIDSGTHCLLDSFRTMPIPDSRVMTRSGQRLTDLLGSKVFHSYFEEQRLGKVAPDVPMFVSQGANDDIIPAQQARDMVSNWRDLGADVTYFEDPAPLLVRMEGHVRPLVTSFDPALQWAEKLLGSEVINPPSAS”, the protein production was “failed”.
With “MMIKASTNEFRFCFKQMNKSQHELVLGWIHQPHINEWLHGDGLSNTIKDLHEFLNDGKPWATHWIAYDNEIPFAYLITSEIEKSEEYPDGAVTLDLFICRLDYIGKGLSVQMIHEFILSQFSDTKIVLINPEISNERAVHVYKKAGFEIIGEFIASWHPVPHYKMKLCIEDLKKQRLSA” the protein production was “not failed”.
For “MMAEGGAADLDTQRSDIATLLKTSLRKGDTWYLVDSRWFKQWKKYVGFDSWDKYQMGDQNVYPGPIDNSGLLKDGDAQSLKEHLIDELDYILLPTEGWNKLVSWYTLMEGQEPIARKVVEQ”, the protein production was “not failed”.
In the case of “IPLEQGIEFLSVNVEEDSPVVGKKLKDLPLPRDSIIAAIVRGGVLVVPRGDTEILSGDKLYVIVSAEAKETVEETLLGR”, the protein production is reported as “not failed”.
For “MAVTLQQTLIDIDEEQLVFHLHNDQISYILGVETGNVLAHLYFGPRVRGYHGERQYPRIDRGFSGNLPNTTDRSYSKDDLPQEYGGNNTGDYRQPAAIIRAANGARTVDFRYQDCRMEAGKPELKGLPQTYVEDEDEAQTLIVTLRDATLGVTLELAYTIYRDRPVITRSARLINHSEQAVDLEKVASMQMDLPTQPLDAISLPGSYARERQLSRERLHRGVTQFESRRGASSHHMNPFVALADPNTNEFQGNVLGALLIYSGNHQISLERDPIGQTRLTMGINEYNFDWRLAAGDSFQTPEVAMVYSTTGLNGMSQTYHDLLRDRVARSRYKHDLRPILINNWEATYFDFDADKIQSILDAAAPLGIEMFVLDDGWFGHRNDDNSSLGDWFVNRNKLPGGLADISKRTHDKGMRFGLWFEPENISADSDLYRAHPDWVLGVPDRGRTLSRNEYVLDFSQPDVVDNIFEQMTAVLDKVPIDYIKWDMNRNLTEVYSPHSDSTHEGETSHRFILGVYDLMERLTKRYPQILFEGCSGGGGRFDAGLMYYMPQSWPSDNNDPIERLKIQYGTSLVYPISAITAHVGTSPDELLGRSTSMKMRGAVAMSGTLGYELDAAQLSDADKQAVKRQVAFYKQHRELVQYGTFYRLESPFESNTVAWMFVSPDQKEALLFTFVILGAVQPEPHITKLAGLDPQQTYVETDTNKMYGGDELMQLGLYTTPVQTSDFTAQVHYFKAKDLEHHHHHH”, the protein production was “failed”.
With “APHGPGLIYRQPNCDDPETEEAALVAIDYINQNLPWGYKHTLNQIDEVKVWPQQPSGELFEIEIDTLETTCHVLDPTPVARCSVR” the protein production was “failed”.
In the case of “MDSDETGFEHSGLWVSVLAGLLLGACQAHPIPDSSPLLQFGGQVRQRYLYTDDAQQTEAHLEIREDGTVGGAADQSPESLLQLKALKPGVIQILGVKTSRFLCQRPDGALYGSLHFDPEACSFRELLLEDGYNVYQSEAHGLPLHLPGNKSPHRDPAPRGPARFLPLPGLPPALPEPPGILAPQPPDVGSSDPLSMVGPSQGRSPSYAS”, the protein production is reported as “failed”.
With “MLTRAIKTQLVLLTVLAVIAVVVLGWYFLRIPSLVGIGRYTLYAELPRSGGLYRTANVTYRGITIGKVTGVEPTERGARATMSIDNGYQIPTDASANVHSVSAVGEQFVDLVSTRTSGPYLRHGQTITTTTVPSQIGPALDAANRGLAVLPKDRVASVLHEASEAVGGLGSSLNRLIEATQAIAHDVRGSLEDIDDIIERSAPIIDSQVNSGNEIARWAANLNTLAAQTAQTDPAVRSILANAAPTADQVNATFSDVRESLPQTLANLEVVIDMLKRYHNGVEQALVFLPQSGAIAQSVTTEFPGQAGLGVGGLALNQPPPCLTGFLPASEWRSPADTSTAPLPKGTYCRIPMDASNVVRGARNNPCVDVPGKRAATPRECRSNEAYVPGGTNPWYGDPNQMLSCPAPAARCDQPVKPGQVIPAPSVNNGINPLPADQLPGTPPPVNDPLQRPGSGTVQCNGQQPNPCVYTPSTFPTTIYDVQSGKVVAPDGVVYSVEASTHAGADGWKVMLAPTG” the protein production was “failed”.
With “MESEGEAQMFADCDQKTVKQTAAKPMSSKKKQDFQALASDRQLAIVFSSMIQVSEAFDYGIGNPEYFVRISMTEEEADIAKENLESIKLENKSLKKQNSEAVALLQKTRNQDMSRIEIQQLTENRAGFFETADSMIKLINQVTPKNAKKTRQQLDQLKKQYTQYSAESIKIMNSIVKKQKADKASFERHLEALLQKQPGQQVRSELYLEHHHHHH” the protein production was “not failed”.
In the case of “MGAKGKFWILTMVVAISGLSQGVLLPLIAIILEEKGVSAGINGFHATGIYLGVLLVSPFIEAPLHKYGYKPIILVGGGLVAIAIFAFPIWFNLYFWFILRLLIGIGDHMLHFSSQTWIGAMSDPSKRGRNMAIYGLFFSVGFAIGPQLVNLAKVNANLPFFLSGILVLIAWSLVWFIRNDFVGEKAVIRKISFWGSIKRFSGVFKMAWVAMIPPFLYGILETGLNATFPVVGLRDGLDTMMIAMIISSFSVGTIIFQVPIGIISDKFGRDKMLPLLTGAGAVVFVLTAFVKIPIFFVIFFFILGILLGSLYSLGLSYMTDLTPLELLPAGNILVGMFFSLGSIIGPSATGMMIGIFGNQIFYFVVAGILLLGCLLLALGGRKEAH”, the protein production is reported as “not failed”.
For “AIAAASLGEFEWCVATNTFRISPRLAKLSGIPEGELDSQGGNALYAYIHPDDREAVRANIDRQLAQSGRFTAEYRRTPLEHGGETWNSVAGVMLMDADGQPSRLIGVVQDITPRKL”, the protein production was “failed”.
With “MHAPAILRQSGIDALLAGDGSPEIMVTDSPSPPVKRSKIWELSRTYHCPVIGLCLPASDLERFAKRFHFKASINNAHDLHVEAVCRVTSRNVVSETIHKYLDRLYESHIKQFDAAKTDSEVLALWETCFTNERIAGPLWAALTHKRISSEGREQIHDRVHMHMHEAVAELSATQHRLNQAEQMLKELAGQLEQIREKHVQTESRLRQQLQQAAAEIKQLQQSRRESETTRQRLETLESGQAILRMGQRLMQLTVENEQLQIKAAQADDLKQSLKNACHNLTELYHERDTLRVERDTLENLLLTLNSGSTTDTETADTTETKMAAYECILCVGGRSTLLPQYRTLARQLGLKLSHHDGGQEDALSRLPEMIYGAAAVICPTDYVSHAAYYQVKRLCRLGHKPCLLFKGTGVSSFAAALTKITSGQASINSSPVDTVETTT” the protein production was “failed”.
With “MPRFSTACLDWESRIVNRESLIPFAPLFPTEAEAALDVFKSLQITDLPQVYDRKLGRHRHPTFGESCEQYVFDFVSAIFGAYDEESAKRVIEEFFLLISKKNIKSTLAAGIMLTALIRNWRHNQELLILAPTQEVAGNSFNPAASMVAADPDLTILLHVNKNTKEITHTLTKAVLKIVSADSNTAAGKKAAFVLIEELWLFGKKANAAAMLQEATGGLISRPEGFVIYITTQSDEPPAGVFKEKLDYFRDVRDGKIDDPTSLGVLYEFPDPMIDNEAYLDPANWYVTNPNMGRSVRKDWLERKLLKIQSGEDEEGDTWQSFLAKHLNVEIGMRQRGNRWPGANYWERAADPELAVLDHFAALDRFLERSEVVVVGVDGGGLDDLFGLTLVGREPDEIEIPVMVNGRESLVKMKRWLTWSHAWCHRDVLKRRKKIAPVLTDFDKAGHLTIVDAALEDLASIVDIIGTVKASGLLSSVAVDPAGLGEFVDALASPEIDITQENGLLVGVPQGFALMNAIKTAERRLSNGMLRHAGGPLMPWCVANLKIEPTATAIRATKQTAGDAKIDPAMALFDAVTMMVKNPEAPIASVYAERGIRVV” the protein production was “failed”.
With “MINPKVITRILANTDLKTKMRLAKVVPKLGKSDDVTKCMLCPNMCLHVCPVFDAERRLTVSPSVKSRLAYLGETEEAIYHCLPCDACKNACPMDISVNDNLRGYRGGERAMKAIERFEKSMRKVEVEPRDGKILYFPGCSTFESGLFDVTVEVLEKLGVDFAVKNLECCGMPYYELGLVDKFRGKISSLKDAAAKYEGVISNCPHCVHVMRENGIKAAHLLAVLKPVKIGGDVSYHDPCILARKLDIVEEPRRLLAEMGFVVHEPVFNGKDTHCCGYGGVYRFVVPEMAEKVAERRMEHFEHQIVTLCPSCRMALKAKDIVEIIAEGL” the protein production was “failed”.
With “MIPLSPDTLLAARLLAEGDLAGALRAAQAGLQAEPGNAPLWNLLGVCAARLGQAALAEQCWRQALSLDPATPDAHYNLGCLASERDDAAAADAHYRAELARDPDHCSSLGNLGNLLQDAGRLDEAETCFRRRLAIQPGAAAHYQLGRLLAERGRNGEAEAQLRACLDETPDDVEALQLLGRLLEERGEAGEAEAMLRRALESAPGHAAAGNNLGLLLMAQRRWDEAESPLRAAHAAQPGAALPNLASLLLATGRAAEAETLARQALAAEPGRADWLNLLGLALREQGRDEEAGLAWEQGLASVPDHRRLRQNLGYLQLARGDWAAGWAHHEARLESAVYPALPSPRWQGESLAGRRLLVLFEQGYGDAIQFSRYLNPLLEQGAARVVALCREPLSPLFSRQWPQVAWLAMGSGYPAAFPPHDCHVFSMSLPWALRDFEPRAETYLQADPALRQAWRARLPPGRNIGLVWRRPAPSTRSTIAVPCRGRRLCCRCWPIPAPTGFRCSRSRPMSNANGCSNMAWRSGVPNWGISPTARRCWRNWTAWWPWTPRWRTWRARWACLAGCCWPASMWTGAGDGMAKRRRGTTRFVCSAKGAARDGARRSPGCERRNAQRSRLPGCISRSRSDGCLMLRIRK” the protein production was “failed”.
